Test results reported in article PMC12442378, “SmsB-SmsC machinery in Thermococcus kodakarensis functions as an archaeal scaffold mediating Fe-S cluster assembly” (Applied and Environmental Microbiology, 2025).

B1: Tk-CSD (cysteine desulfurase of T. kodakarensis, TK1990 protein) (enzyme, Thermococcus kodakarensis, UniProt Q5JIJ0 1-399, looked up)
chain: MKIPDDIRKDIPLTSEVIYFDNTATSLTPKPVIEAMDEYYLKYRANVHRGVHRLSQIATHKYEESRKVVADFINAKFEEIVFTKNTSESLNLVALGLEHIFEKGDKIVTTPYEHHSDLLPWQRLAKKKGLRLEFIEGDLEGNLDLADAEKKIKGAKLVAVQHVSNALGVIHEVEELGKMAKEEGAIFVVDAAQSAGHMEVDVKKLYADFLGFSGHKGPMGPTGIGVLYINSEFFDVFEPPLIGGGTIEDVDLDSYKLAEPPERFEAGTPNIGGAIGLAAGIRYIERIGIEKIEKQEHKLVKRTTEGLDELEVPWYGPRNLKKHAGVVSFNVPPLHPHDVAAILDEHNIMVRSGHHCALPAMKKLGVEGTVRASFHVYNSVEEVETFLSVMENLIRGLRG
notes: cysteine desulfurase (SufS homolog) of Thermococcus kodakarensis, locus TK1990; coding region amplified from genomic DNA of strain KU216; theoretical monomer mass 44.4 kDa; Cloned NheI-EcoRI into pET-21a(+); Homodimer by gel filtration; source: E. coli BL21-CodonPlus(DE3)-RIL (pET1990), purified (heat treatment, anion exchange, gel filtration)
B2: Tk-SmsB (TK0730 protein) with a 6x His tag at its N-terminus (natural protein, Thermococcus kodakarensis, UniProt Q5JG67 1-446, looked up)
chain: MTETITMADAKAIIENQIEELARRNKEPEWMTKIRYKALEAFERAPHKDPVISEEQLLHFIAKPEVKGLPDHIESLDDLPPEMKALLDRLGISEVEQKYIAGLAVQTDTGVIYNQFLQDWAKKGLIVLPTEEAVRKYPDIVKQHFLKLFRADESKLTAYHTAVWNGGIFLYVKEGLKVPFPLHLFFLIQESALAQAPHIIIIAERNTEFHLIEGCTAPILLKHSLHLDMTEAYFHEGAKAQLTVLQNWPEYVHTRPMTRAKVGRGARFINTTVTLGSGKSNIGDPHYWVEEGGHVELNGIILGQKDFYVDLGGRMFLQGPGASGINASKAVIMDESTVVTRGIIEADAPKTKGHISCDALLMSDKAVMETYPGLISRVDDAELSHEAAIGKIREEELFYLMSRGLDEEKATQLIVKGFLDPMLKDIPMEFLVEIRKIIELAVSGGM
notes: SmsB (SufB homolog) of Thermococcus kodakarensis, locus TK0730; coding region amplified from genomic DNA of strain KU216; theoretical monomer mass 50.8 kDa including the His tag; Homodimer by gel filtration.); not shown: His6, N-terminal, kept
B3: Tk-SmsC (TK0731 protein), recombinant (enzyme, Thermococcus kodakarensis, UniProt Q5JG66 1-246, looked up)
chain: MLKVENLHVSVEDKEILRGVDLEVNPGEFHVIMGPNGSGKSTLALTIAGHPKYRVTDGKILFEGEDITELGPDERAKRGILLAFQVPPEVEGVKVIEFLQQVLVELKGMDPAEAYDLVVEKAKELWFKEEDLHRYVNVGFSGGERKRLELLQALLIEPKLLILDEPDSGVDVDSLSIISRKIEELHQRGTAILLITHYGRILGHLDREKLTVHVMKDGRIVKTGSGELVDQIDREGFARIFEEVGA
notes: SmsC (SufC homolog, ABC-type ATPase) of Thermococcus kodakarensis, locus TK0731; coding region amplified from genomic DNA of strain KU216; theoretical mass 27.5 kDa; Cloned NdeI-BamHI into pET-21a(+); Monomer by gel filtration; source: E. coli BL21-CodonPlus(DE3)-RIL (pET0731), purified (heat treatment, anion exchange, gel filtration)

Assays:
[1] = target: the molecule itself; experiment: SEC; gel filtration of Tk-CSD alone and of its mixtures with Tk-SmsB, Tk-SmsC or both, 30 uM of each protein; fractions analysed by SDS-PAGE
[2] = target: the molecule itself; experiment: SEC; Superdex 200 Increase 10/300 GL; 50 mM HEPES pH 7.5, 0.15 M NaCl; Tk-SmsB 40 uM alone, Tk-SmsC 72 uM alone, or mixture of 40 uM each; peak fraction analysed by SDS-PAGE and band densitometry
[3] = target: B2; experiment: as above; settings: both partners purified
[4] = target: B2; experiment: cell-based or functional assay

B1
stoichiometry N [1]: 2

B2
stoichiometry N [2]: 2

B3
density ratio of the Tk-SmsB band to the Tk-SmsC band (SDS-PAGE of peak Pm) [3]: 1.13
stoichiometry N [3]: 1 Tk-SmsC per Tk-SmsB (printed as 2:2)
kcat/Km of ATP hydrolysis, Tk-SmsB2C2 (Tk-SmsC alone 4.4 × 10^2) [4]: 4600 M⁻¹ s⁻¹
